Data reported in patent publication US20150344570A1 (published 2015).

T1: FcγRIIb extracellular domain with C-terminal His tag (human, UniProt P31994 43-217)
T1 construct: extracellular domain; also called FcgRIIb; 2b; not shown: His tag at the C terminus
T1 sequence (looked up): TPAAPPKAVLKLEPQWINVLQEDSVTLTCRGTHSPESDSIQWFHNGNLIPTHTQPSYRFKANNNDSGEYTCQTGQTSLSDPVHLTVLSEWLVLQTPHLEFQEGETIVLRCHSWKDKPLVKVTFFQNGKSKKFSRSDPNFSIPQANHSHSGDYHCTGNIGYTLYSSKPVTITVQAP


How the values were obtained:
[1] = target: T2, FcγRIIIa extracellular domain with C-terminal His tag (human, UniProt P08637 17-208); assay: SPR (Biacore); He/Con_3a divided by He/Con_2b (FcγRIIb)
T2 construct: extracellular domain; also called FcgRIIIa; 3a; not shown: His tag at the C terminus
T2 sequence (P08637 17-208): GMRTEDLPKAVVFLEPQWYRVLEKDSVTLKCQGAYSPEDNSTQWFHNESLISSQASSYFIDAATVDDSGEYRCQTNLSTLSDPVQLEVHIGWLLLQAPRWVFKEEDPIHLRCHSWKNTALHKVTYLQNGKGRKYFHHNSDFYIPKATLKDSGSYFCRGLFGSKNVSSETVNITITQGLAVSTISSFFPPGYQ

[2] = target: T1, FcγRIIb extracellular domain with …; assay: SPR (Biacore), FcγR as analyte over captured antibody; GpH7-A5/GpH7-B3/GpL16-k0 = 100
[3] = target: T2, FcγRIIIa extracellular domain with …; assay: as above

Row | Binder | He_3a/2b (IIIa/IIb) [1] [ratio] | He/Con_2b [2] | He/Con_3a [3]
1 | GpH7-A5/GpH7-B3 variant N325_08L/GpL16-k0 (antibody, human IgG1, kappa, Heterodimerized IgG1 antibody; alteration in the GpH7-B3 chain only; also called He Ab) heavy 1: not shown heavy 2: not shown light: DIVMTQSPLSLPVTPGEPASISCQASESLVHSNRNTYLHWYLQKPGQSPQLLIYKVSNRFSGVPDRFSGSGSGTDFTLKISRVEAEDVGVYYCSQNTHVPPTFGQGTKVEIERTVAAPSVFIFPPSDEQLKSGTASVVCLLNNFYPREAKVQWKVDNALQSGNSQESVTEQDSKDSTYSLSSTLTLSKADYEKHKVYACEVTHQGLSSPVTKSFNRGEC | 0.17 | 197 % of control | 33.3 % of control
2 | GpH7-A5/GpH7-B3 variant N325_11K/GpL16-k0 (antibody, human IgG1, kappa, Heterodimerized IgG1 antibody; alteration in the GpH7-B3 chain only; also called He Ab) heavy 1: not shown heavy 2: not shown light: DIVMTQSPLSLPVTPGEPASISCQASESLVHSNRNTYLHWYLQKPGQSPQLLIYKVSNRFSGVPDRFSGSGSGTDFTLKISRVEAEDVGVYYCSQNTHVPPTFGQGTKVEIERTVAAPSVFIFPPSDEQLKSGTASVVCLLNNFYPREAKVQWKVDNALQSGNSQESVTEQDSKDSTYSLSSTLTLSKADYEKHKVYACEVTHQGLSSPVTKSFNRGEC | 0.5 | 10.4 % of control | 5.2 % of control
3 | GpH7-A5/GpH7-B3 variant Y296_11K/GpL16-k0 (antibody, human IgG1, kappa, Heterodimerized IgG1 antibody; alteration in the GpH7-B3 chain only; also called He Ab) heavy 1: not shown heavy 2: not shown light: DIVMTQSPLSLPVTPGEPASISCQASESLVHSNRNTYLHWYLQKPGQSPQLLIYKVSNRFSGVPDRFSGSGSGTDFTLKISRVEAEDVGVYYCSQNTHVPPTFGQGTKVEIERTVAAPSVFIFPPSDEQLKSGTASVVCLLNNFYPREAKVQWKVDNALQSGNSQESVTEQDSKDSTYSLSSTLTLSKADYEKHKVYACEVTHQGLSSPVTKSFNRGEC | 0.78 | 72.8 % of control | 56.7 % of control
4 | GpH7-A5/GpH7-B3 variant N325_19Q/GpL16-k0 (antibody, human IgG1, kappa, Heterodimerized IgG1 antibody; alteration in the GpH7-B3 chain only; also called He Ab) heavy 1: not shown heavy 2: not shown light: DIVMTQSPLSLPVTPGEPASISCQASESLVHSNRNTYLHWYLQKPGQSPQLLIYKVSNRFSGVPDRFSGSGSGTDFTLKISRVEAEDVGVYYCSQNTHVPPTFGQGTKVEIERTVAAPSVFIFPPSDEQLKSGTASVVCLLNNFYPREAKVQWKVDNALQSGNSQESVTEQDSKDSTYSLSSTLTLSKADYEKHKVYACEVTHQGLSSPVTKSFNRGEC | 0.46 | 69.1 % of control | 31.6 % of control
5 | GpH7-A5/GpH7-B3 variant P271_14T/GpL16-k0 (antibody, human IgG1, kappa, Heterodimerized IgG1 antibody; alteration in the GpH7-B3 chain only; also called He Ab) heavy 1: not shown heavy 2: not shown light: DIVMTQSPLSLPVTPGEPASISCQASESLVHSNRNTYLHWYLQKPGQSPQLLIYKVSNRFSGVPDRFSGSGSGTDFTLKISRVEAEDVGVYYCSQNTHVPPTFGQGTKVEIERTVAAPSVFIFPPSDEQLKSGTASVVCLLNNFYPREAKVQWKVDNALQSGNSQESVTEQDSKDSTYSLSSTLTLSKADYEKHKVYACEVTHQGLSSPVTKSFNRGEC | 0.59 | 95.4 % of control | 56.4 % of control
6 | GpH7-A5/GpH7-B3 variant N325_10E/GpL16-k0 (antibody, human IgG1, kappa, Heterodimerized IgG1 antibody; alteration in the GpH7-B3 chain only; also called He Ab) heavy 1: not shown heavy 2: not shown light: DIVMTQSPLSLPVTPGEPASISCQASESLVHSNRNTYLHWYLQKPGQSPQLLIYKVSNRFSGVPDRFSGSGSGTDFTLKISRVEAEDVGVYYCSQNTHVPPTFGQGTKVEIERTVAAPSVFIFPPSDEQLKSGTASVVCLLNNFYPREAKVQWKVDNALQSGNSQESVTEQDSKDSTYSLSSTLTLSKADYEKHKVYACEVTHQGLSSPVTKSFNRGEC | 0.4 | 95.9 % of control | 38.2 % of control
7 | GpH7-A5/GpH7-B3 variant S298_05P/GpL16-k0 (antibody, human IgG1, kappa, Heterodimerized IgG1 antibody; alteration in the GpH7-B3 chain only; also called He Ab) heavy 1: not shown heavy 2: not shown light: DIVMTQSPLSLPVTPGEPASISCQASESLVHSNRNTYLHWYLQKPGQSPQLLIYKVSNRFSGVPDRFSGSGSGTDFTLKISRVEAEDVGVYYCSQNTHVPPTFGQGTKVEIERTVAAPSVFIFPPSDEQLKSGTASVVCLLNNFYPREAKVQWKVDNALQSGNSQESVTEQDSKDSTYSLSSTLTLSKADYEKHKVYACEVTHQGLSSPVTKSFNRGEC | 0.69 | 11.9 % of control | 8.2 % of control
8 | GpH7-A5/GpH7-B3 variant N325_20W/GpL16-k0 (antibody, human IgG1, kappa, Heterodimerized IgG1 antibody; alteration in the GpH7-B3 chain only; also called He Ab) heavy 1: not shown heavy 2: not shown light: DIVMTQSPLSLPVTPGEPASISCQASESLVHSNRNTYLHWYLQKPGQSPQLLIYKVSNRFSGVPDRFSGSGSGTDFTLKISRVEAEDVGVYYCSQNTHVPPTFGQGTKVEIERTVAAPSVFIFPPSDEQLKSGTASVVCLLNNFYPREAKVQWKVDNALQSGNSQESVTEQDSKDSTYSLSSTLTLSKADYEKHKVYACEVTHQGLSSPVTKSFNRGEC | 0.19 | 169 % of control | 32.8 % of control
9 | GpH7-A5/GpH7-B3 variant Y296_13S/GpL16-k0 (antibody, human IgG1, kappa, Heterodimerized IgG1 antibody; alteration in the GpH7-B3 chain only; also called He Ab) heavy 1: not shown heavy 2: not shown light: DIVMTQSPLSLPVTPGEPASISCQASESLVHSNRNTYLHWYLQKPGQSPQLLIYKVSNRFSGVPDRFSGSGSGTDFTLKISRVEAEDVGVYYCSQNTHVPPTFGQGTKVEIERTVAAPSVFIFPPSDEQLKSGTASVVCLLNNFYPREAKVQWKVDNALQSGNSQESVTEQDSKDSTYSLSSTLTLSKADYEKHKVYACEVTHQGLSSPVTKSFNRGEC | 0.72 | 86.3 % of control | 61.8 % of control
10 | GpH7-A5/GpH7-B3 variant N325_09D/GpL16-k0 (antibody, human IgG1, kappa, Heterodimerized IgG1 antibody; alteration in the GpH7-B3 chain only; also called He Ab) heavy 1: not shown heavy 2: not shown light: DIVMTQSPLSLPVTPGEPASISCQASESLVHSNRNTYLHWYLQKPGQSPQLLIYKVSNRFSGVPDRFSGSGSGTDFTLKISRVEAEDVGVYYCSQNTHVPPTFGQGTKVEIERTVAAPSVFIFPPSDEQLKSGTASVVCLLNNFYPREAKVQWKVDNALQSGNSQESVTEQDSKDSTYSLSSTLTLSKADYEKHKVYACEVTHQGLSSPVTKSFNRGEC | 0.39 | 124 % of control | 48 % of control
11 | GpH7-A5/GpH7-B3 variant N325_15Y/GpL16-k0 (antibody, human IgG1, kappa, Heterodimerized IgG1 antibody; alteration in the GpH7-B3 chain only; also called He Ab) heavy 1: not shown heavy 2: not shown light: DIVMTQSPLSLPVTPGEPASISCQASESLVHSNRNTYLHWYLQKPGQSPQLLIYKVSNRFSGVPDRFSGSGSGTDFTLKISRVEAEDVGVYYCSQNTHVPPTFGQGTKVEIERTVAAPSVFIFPPSDEQLKSGTASVVCLLNNFYPREAKVQWKVDNALQSGNSQESVTEQDSKDSTYSLSSTLTLSKADYEKHKVYACEVTHQGLSSPVTKSFNRGEC | 0.3 | 99.5 % of control | 29.5 % of control
12 | GpH7-A5/GpH7-B3 variant P271_09D/GpL16-k0 (antibody, human IgG1, kappa, Heterodimerized IgG1 antibody; alteration in the GpH7-B3 chain only; also called He Ab) heavy 1: not shown heavy 2: not shown light: DIVMTQSPLSLPVTPGEPASISCQASESLVHSNRNTYLHWYLQKPGQSPQLLIYKVSNRFSGVPDRFSGSGSGTDFTLKISRVEAEDVGVYYCSQNTHVPPTFGQGTKVEIERTVAAPSVFIFPPSDEQLKSGTASVVCLLNNFYPREAKVQWKVDNALQSGNSQESVTEQDSKDSTYSLSSTLTLSKADYEKHKVYACEVTHQGLSSPVTKSFNRGEC | 0.77 | 120 % of control | 93.1 % of control
13 | GpH7-A5/GpH7-B3 variant S324_05P/GpL16-k0 (antibody, human IgG1, kappa, Heterodimerized IgG1 antibody; alteration in the GpH7-B3 chain only; also called He Ab) heavy 1: not shown heavy 2: not shown light: DIVMTQSPLSLPVTPGEPASISCQASESLVHSNRNTYLHWYLQKPGQSPQLLIYKVSNRFSGVPDRFSGSGSGTDFTLKISRVEAEDVGVYYCSQNTHVPPTFGQGTKVEIERTVAAPSVFIFPPSDEQLKSGTASVVCLLNNFYPREAKVQWKVDNALQSGNSQESVTEQDSKDSTYSLSSTLTLSKADYEKHKVYACEVTHQGLSSPVTKSFNRGEC | 0.69 | 94.7 % of control | 65.5 % of control
14 | GpH7-A5/GpH7-B3 variant N325_14T/GpL16-k0 (antibody, human IgG1, kappa, Heterodimerized IgG1 antibody; alteration in the GpH7-B3 chain only; also called He Ab) heavy 1: not shown heavy 2: not shown light: DIVMTQSPLSLPVTPGEPASISCQASESLVHSNRNTYLHWYLQKPGQSPQLLIYKVSNRFSGVPDRFSGSGSGTDFTLKISRVEAEDVGVYYCSQNTHVPPTFGQGTKVEIERTVAAPSVFIFPPSDEQLKSGTASVVCLLNNFYPREAKVQWKVDNALQSGNSQESVTEQDSKDSTYSLSSTLTLSKADYEKHKVYACEVTHQGLSSPVTKSFNRGEC | 0.43 | 91.6 % of control | 39.4 % of control
15 | GpH7-A5/GpH7-B3 variant N325_13S/GpL16-k0 (antibody, human IgG1, kappa, Heterodimerized IgG1 antibody; alteration in the GpH7-B3 chain only; also called He Ab) heavy 1: not shown heavy 2: not shown light: DIVMTQSPLSLPVTPGEPASISCQASESLVHSNRNTYLHWYLQKPGQSPQLLIYKVSNRFSGVPDRFSGSGSGTDFTLKISRVEAEDVGVYYCSQNTHVPPTFGQGTKVEIERTVAAPSVFIFPPSDEQLKSGTASVVCLLNNFYPREAKVQWKVDNALQSGNSQESVTEQDSKDSTYSLSSTLTLSKADYEKHKVYACEVTHQGLSSPVTKSFNRGEC | 0.37 | 177 % of control | 65.1 % of control
16 | GpH7-A5/GpH7-B3 variant S298_08L/GpL16-k0 (antibody, human IgG1, kappa, Heterodimerized IgG1 antibody; alteration in the GpH7-B3 chain only; also called He Ab) heavy 1: not shown heavy 2: not shown light: DIVMTQSPLSLPVTPGEPASISCQASESLVHSNRNTYLHWYLQKPGQSPQLLIYKVSNRFSGVPDRFSGSGSGTDFTLKISRVEAEDVGVYYCSQNTHVPPTFGQGTKVEIERTVAAPSVFIFPPSDEQLKSGTASVVCLLNNFYPREAKVQWKVDNALQSGNSQESVTEQDSKDSTYSLSSTLTLSKADYEKHKVYACEVTHQGLSSPVTKSFNRGEC | 0.68 | 108 % of control | 73.5 % of control
17 | GpH7-A5/GpH7-B3 variant Y296_01G/GpL16-k0 (antibody, human IgG1, kappa, Heterodimerized IgG1 antibody; alteration in the GpH7-B3 chain only; also called He Ab) heavy 1: not shown heavy 2: not shown light: DIVMTQSPLSLPVTPGEPASISCQASESLVHSNRNTYLHWYLQKPGQSPQLLIYKVSNRFSGVPDRFSGSGSGTDFTLKISRVEAEDVGVYYCSQNTHVPPTFGQGTKVEIERTVAAPSVFIFPPSDEQLKSGTASVVCLLNNFYPREAKVQWKVDNALQSGNSQESVTEQDSKDSTYSLSSTLTLSKADYEKHKVYACEVTHQGLSSPVTKSFNRGEC | 0.69 | 79.3 % of control | 54.5 % of control
